Target: myc-tagged LIMP-2
Assay: cell-based or functional assay

- post-ER form of GC (EndoH resistance) on co-expression of LIMP-2: 10 fold
Substance: wild-type β-glucocerebrosidase (GC), human, overexpressed in cells (from UniProt P04062 40-536) (enzyme)
